The record followed here is patent US12214059B2, “Cleavable radioligands for targeting cell surface receptors and uses thereof” (Full-Life Te[…] Limited, priority 2021, dated 2025).

The target of series [1] is T1, PSMA (Homo sapiens, UniProt Q04609).
T1 construct: host or cells: LNCaP cells
The series can be described thus: Cell-based radioligand competitive binding assay (^125I-C-8, LNCaP cells). The settings on record: C-1 = 1.00. The protocol: The culture medium was replaced with fresh medium every 2-3 days. Experiments were performed with cells at 70-80% confluence.
The final volume in each well was maintained at 200 μL and insufficient volume was adjusted by the binding buffer.

A short description of series [2]: Ex-vivo mouse plasma stability study of ^177Lu-labeled compounds. The series is classed as in vitro ADME. The settings on record: 37° C. The protocol:
Plasma Stability Study (Mouse and Human)
Mouse blood was collected via cardiac puncture of the left ventricle. Blood was placed into heparin-coated microfuge tubes and then centrifuged at 3500 rpm for 10 min to separate plasma for stability studies. Human plasma was purchased directly.
At each time point (0, 1, 2, 4, 24, 48 72 h), an aliquot of 25 μL sample was taken and mixed with 100 μL methanol containing 1% formic acid, vertex for 30-60 sec, then centrifuged at 20000 rpm for 10 min. 100 μL supernatant was collected and diluted with 40 μL H2O. 100 μL of the resulting mixture was injected to radio-HPLC for stability assessment, as shown examples FIG. 2 and FIG. 3. The best-fit T½ value of test compounds were calculated by fitting the data with linear or non-linear regression using GraphPad Prism 8.0.1.

For series [3], the system named is PC-3 PIP tumor-bearing mice. The series can be described thus: Biodistribution study in SCID mice bearing PC3-PIP tumor. The series is classed as in vivo, mouse. As to conditions: for T/K at 4 h (tumor uptake/kidney uptake) / T at 24 h (tumor uptake) / T/K at 24 h (tumor uptake/kidney uptake) / T at 96 h (tumor uptake) / T/K at 96 h (tumor uptake/kidney uptake): PC3 PIP tumor-bearing mice. The protocol: Biodistribution Study in SCID Mice Bearing PC3-PIP Tumor
Severe combined immunodeficient (ICR-SCID) mice from the Institute of Cancer Research (Taconic Farms, Germantown, NY) were utilized for these studies. […] These mice received bilateral subcutaneous rear flank injections of approximately 10×10^6 PC-3 PIP cells (prostate cancer cell PC-3 stably expressing human PSMA) suspended in 100 μL of 0.9% NaCl. […] The tissues and organs were weighed, counted in a PerkinElmer Wizard 3 automatic γ counter, and the percent injected dose (% ID) and % ID/g of each organ or tissue were calculated, as shown in Tables 5-24 and FIG. 1 and FIG. 2.

The test system of series [4] is LNCap tumor-bearing mice. The series can be described thus: Biodistribution study in CB-17 SCID mice bearing LNCap tumor. The series is classed as in vivo, mouse. The protocol: Biodistribution Study in CB-17 SCID Mice Bearing LNCap Tumor
All animal care and experimental procedure were performed by following the animal protocols approved by the ethics committee of China Institute of Radiation Protection. The CB-17 SCID mice (Charles River, Beijing) were utilized for these studies. […] These mice received subcutaneous rear flank injections of approximately 4×10^6 LNCap cells suspended in 200 μL of phosphate-buffered saline (PBS) and Matrigel (Corning) (1/1).

Where [5] appears, read: based on the mean value of the IC50 number.
Where [6] appears, read: * = value obtained using nonlinear regression.

T1 sequence (Q04609 whole entry): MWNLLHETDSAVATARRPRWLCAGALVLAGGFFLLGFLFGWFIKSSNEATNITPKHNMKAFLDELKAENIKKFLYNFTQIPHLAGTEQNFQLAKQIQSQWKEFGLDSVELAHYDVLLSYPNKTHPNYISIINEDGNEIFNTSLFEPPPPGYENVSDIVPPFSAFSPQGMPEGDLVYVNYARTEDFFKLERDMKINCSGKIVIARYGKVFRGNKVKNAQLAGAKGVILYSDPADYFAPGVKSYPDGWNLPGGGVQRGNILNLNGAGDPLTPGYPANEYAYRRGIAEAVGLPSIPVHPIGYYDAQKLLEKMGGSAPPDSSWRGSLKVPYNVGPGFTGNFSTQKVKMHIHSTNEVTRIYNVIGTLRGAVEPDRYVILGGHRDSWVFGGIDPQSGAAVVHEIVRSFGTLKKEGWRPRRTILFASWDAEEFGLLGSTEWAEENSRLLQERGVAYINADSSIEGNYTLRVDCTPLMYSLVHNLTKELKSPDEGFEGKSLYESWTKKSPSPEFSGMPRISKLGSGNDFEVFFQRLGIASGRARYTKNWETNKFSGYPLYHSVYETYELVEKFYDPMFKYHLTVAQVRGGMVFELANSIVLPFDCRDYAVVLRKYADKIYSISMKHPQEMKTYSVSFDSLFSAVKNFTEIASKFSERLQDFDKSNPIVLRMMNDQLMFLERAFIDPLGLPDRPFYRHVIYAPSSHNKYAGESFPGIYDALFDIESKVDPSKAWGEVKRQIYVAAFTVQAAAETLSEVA

For the molecule “[HO-C20-gGlu-Lys(-ESL1-ESL1-ESL1-DOTA)-OEG-OEG-OEG-NH2CH2CH2NH—]-TMA-(-OEG-Trx-2NaI-eKuE)2 [Example I-44]”, the “Relative Binding Affinity” value in series [1] (setting [5]) is reported as 0.13.
For “HO-C18-gGlu-OEG-OEG-OEG-Lys(DOTA)-OEG-Trx-2NaI-eKuE [Example C-6, reference compound]”, the “Relative Binding Affinity” value in series [1] (setting [5]) and in series [1] (relative) was 0.05 each time.
With “DOTA-gGlu(-eLys-4pIBA)-Trx-2NaI-eKuE [Example C-9, reference compound]”, the “Relative Binding Affinity” value in series [1] (setting [5]) came to 0.92.
Consider “(HO-C18-gGlu-Lys(-OEG-DOTA)-OEG-OEG-OEG-NH2CH2CH2NH-TMA(-OEG-Trx-2NaI-eKuE)2 [Example C-7, reference compound]”, for which the “Relative Binding Affinity” value in series [1] (setting [5]) and in series [1] (relative) was 0.14 throughout.
Consider “HO-C18-gGlu-OEG-OEG-Gly-5hPA-Lys(DOTA)-OEG-Trx-2NaI-eKuE [Example I-49]”, for which the “Relative Binding Affinity” value in series [1] (setting [5]) and in series [1] (relative) was 0.09 throughout.
As for `O=C(O)CCCCCCCCCCCCCCCCC(=O)N[C@@H](CCC(=O)NCCOCCOCC(=O)NCCOCCOCC(=O)N[C@@H](CCCCNC(=O)CCCOC(=O)CNC(=O)CNC(=O)CNC(=O)CNC(=O)CN1CCN(CC(=O)O)CCN(CC(=O)O)CCN(CC(=O)O)CC1)C(=O)NCCOCCOCC(=O)NC[C@H]1CC[C@H](C(=O)N[C@@H](Cc2ccc3ccccc3c2)C(=O)NCCCC[C@H](NC(=O)N[C@@H](CCC(=O)O)C(=O)O)C(=O)O)CC1)C(=O)O` [Example I-46, HO-C18-gGlu-OEG-OEG-Lys(-ESL1-Gly-Gly-Gly-DOTA)-OEG-Trx-2NaI-eKuE], in series [2], the “% Remaining 0 min” value was found to be 100%, the “% Remaining 1 h” value came out at 95.1%, the “% Remaining 4 h” value is given as 93.5% and the “% Remaining 24 h” value came out at 81.9%. Besides, in series [2], the “% Remaining 48 h” value is recorded as 70.6% and the “% Remaining 72 h” value came out at 55.9%. Also, the “T½ (h)” value in series [2] (setting [6]) is reported as 102* h.
For `O=C(O)CC[C@H](NC(=O)N[C@@H](CCCCNC(=O)[C@H](Cc1ccc2ccccc2c1)NC(=O)[C@H]1CC[C@H](CNC(=O)[C@H](CCCCNC(=O)CN2CCN(CC(=O)O)CCN(CC(=O)O)CCN(CC(=O)O)CC2)NC(=O)CCCOC(=O)CNC(=O)[C@H](CCC(=O)O)NC(=O)CCCc2ccc(I)cc2)CC1)C(=O)O)C(=O)O` [Example I-2, 4pIBA-Glu-ESL1-Lys(DOTA)-Trx-2NaI-eKuE], in series [2], the “% Remaining 0 min” value came to 100%, the “% Remaining 1 h” value is given as 95.6%, the “% Remaining 4 h” value is 93.2% and the “% Remaining 24 h” value was 76.5%. In series [2], the “% Remaining 48 h” value was determined as 67.5% and the “% Remaining 72 h” value was 57.3%. The “T½” value in series [2] (setting [6]) was determined as 80.4 h. For the same molecule, in series [3], the “T/K at 4 h (tumor uptake/kidney uptake)” value came out at 0.6, the “T at 24 h (tumor uptake)” value was 32.4, the “T/K at 24 h (tumor uptake/kidney uptake)” value is on record as 5.0 and the “T at 96 h (tumor uptake)” value turned out to be 9.8. Further, the “T/K at 96 h (tumor uptake/kidney uptake)” value in series [3] was found to be 10.1. In addition, the “uptake ratio between tumor to kidney” value in series [3] (mice bearing PC3-PIP tumor, compared to HTK01169 (C-2)) was “improved uptake ratio between tumor to kidney”. The “Relative Binding Affinity” value in series [1] (setting [5]) is given as 1.59. For the same molecule, the “Relative Binding Affinity” value in series [1] (relative) is on record as 0.75.
For `O=C(O)CC[C@H](NC(=O)N[C@@H](CCCCNC(=O)[C@H](Cc1ccc2ccccc2c1)NC(=O)[C@H]1CC[C@H](CNC(=O)[C@H](CCCCNC(=O)CCCOC(=O)CNC(=O)CN2CCN(CC(=O)O)CCN(CC(=O)O)CCN(CC(=O)O)CC2)NC(=O)[C@H](CCC(=O)O)NC(=O)CCCc2ccc(I)cc2)CC1)C(=O)O)C(=O)O` [Example I-3, 4pIBA-Glu-Lys(-ESL1-DOTA)-Trx-2NaI-eKuE], in series [2], the “% Remaining 0 min” value is listed as 100%, the “% Remaining 1 h” value came out at 88.6%, the “% Remaining 4 h” value is reported as 54.8% and the “% Remaining 24 h” value is reported as 13.0%. For the same molecule, in series [2], the “% Remaining 48 h” value is given as 9.30% and the “% Remaining 72 h” value came out at 3.99%. Moreover, in series [2] (setting [6]), the “T½ (h)” value is listed as 4.9* h. Further, in series [3], the “T/K at 4 h (tumor uptake/kidney uptake)” value amounted to 0.3, the “T at 24 h (tumor uptake)” value was 13.9, the “T/K at 24 h (tumor uptake/kidney uptake)” value amounted to 0.8 and the “T at 96 h (tumor uptake)” value is 6.3. The “T/K at 96 h (tumor uptake/kidney uptake)” value in series [3] was found to be 4.0. In addition, in series [1] (setting [5]), the “Relative Binding Affinity” value was determined as 1.30. The “Relative Binding Affinity” value in series [1] (relative) is given as 1.30.
Take `O=C(O)CC[C@H](NC(=O)N[C@@H](CCCCNC(=O)[C@H](Cc1ccc2ccccc2c1)NC(=O)[C@H]1CC[C@H](CNC(=O)[C@H](CCCCNC(=O)CN2CCN(CC(=O)O)CCN(CC(=O)O)CCN(CC(=O)O)CC2)NC(=O)[C@H](CCC(=O)O)NC(=O)CCCc2ccc(I)cc2)CC1)C(=O)O)C(=O)O` [Example C-2, 4pIBA-Glu-Lys(DOTA)-Trx-2NaI-eKuE, reference compound]: in series [2], the “% Remaining 0 min” value is 100%, the “% Remaining 1 h” value was determined as 100%, the “% Remaining 4 h” value is 100% and the “% Remaining 24 h” value is 100%. Also, in series [2], the “% Remaining 48 h” value is 100% and the “% Remaining 72 h” value is reported as 100%. Besides, in series [2] (setting [6]), the “T½ (h)” value is listed as “Stable”. Besides, in series [3], the “T/K at 4 h (tumor uptake/kidney uptake)” value is reported as 0.3, the “T at 24 h (tumor uptake)” value was 41.1, the “T/K at 24 h (tumor uptake/kidney uptake)” value worked out at 1.0 and the “T at 96 h (tumor uptake)” value was 20.0. Further, the “T/K at 96 h (tumor uptake/kidney uptake)” value in series [3] was 3.7. Also, in series [3] (compared to PSMA-617 (C-1)), the “uptake ratio between tumor to kidney” value is reported as “poor uptake ratio between tumor to kidney”. Also, the “Relative Binding Affinity” value in series [1] (setting [5]) is given as 1.78. Besides, in series [1] (relative), the “Relative Binding Affinity” value amounted to 1.78.
As for `O=C(O)CC[C@H](NC(=O)N[C@@H](CCCCNC(=O)[C@H](Cc1ccc2ccccc2c1)NC(=O)[C@H]1CC[C@H](CNC(=O)COCCOCCNC(=O)[C@H](CCCCNC(=O)CCCOC(=O)CNC(=O)CN2CCN(CC(=O)O)CCN(CC(=O)O)CCN(CC(=O)O)CC2)NC(=O)[C@H](CCCCNC(=O)COCCOCCNC(=O)COCCOCCNC(=O)[C@H](CCC(=O)O)NC(=O)CCCc2ccc(I)cc2)NC(=O)COCCOCCNC(=O)COCCOCCNC(=O)[C@H](CCC(=O)O)NC(=O)CCCc2ccc(I)cc2)CC1)C(=O)O)C(=O)O` [Example I-7, 4pIBA-Glu-OEG-OEG-Lys(-OEG-OEG-Glu-4pIBA)-Lys(-ESL1-DOTA)-OEG-Trx-2NaI-eKuE], in series [3], the “T/K at 4 h (tumor uptake/kidney uptake)” value is 0.7, the “T at 24 h (tumor uptake)” value came to 16.7, the “T/K at 24 h (tumor uptake/kidney uptake)” value came out at 0.9 and the “T at 96 h (tumor uptake)” value came out at 2.6. For the same molecule, in series [3], the “T/K at 96 h (tumor uptake/kidney uptake)” value is 1.4. For the same molecule, the “Relative Binding Affinity” value in series [1] (setting [5]) worked out at 0.56. Moreover, in series [1] (relative), the “Relative Binding Affinity” value was found to be 0.54.
Consider `Cc1ccc(CCCC(=O)NCCCC[C@H](NC(=O)CN2CCN(CC(=O)O)CCN(CC(=O)O)CCN(CC(=O)O)CC2)C(=O)NCC2CCC(C(=O)N[C@@H](Cc3ccc4ccccc4c3)C(=O)NCCCC[C@H](NC(=O)N[C@@H](CCC(=O)O)C(=O)O)C(=O)O)CC2)cc1` (stereo partly shown) [Example C-10, DOTA-Lys(pTBA)-Trx-2NaI-eKuE], for which the “Relative Binding Affinity” value in series [1] (relative) turned out to be 0.92. Besides, in series [4] (LNCap tumor-bearing mice, 24 h), the “T at 24 h (tumor uptake)” value stood at 46.5 and the “T/K at 24 h (tumor uptake/kidney uptake)” value was found to be 0.89. For the same molecule, in series [4] (LNCap tumor-bearing mice, 96 h), the “T at 96 h (tumor uptake)” value is recorded as 34.9 and the “T/K at 96 h (tumor uptake/kidney uptake)” value turned out to be 3.17. Besides, the “uptake ratio between tumor to kidney” value in series [4] (compared to PSMA-617 (C-1)) is reported as “poor uptake ratio between tumor to kidney”.
In the case of `O=C(O)CC[C@H](NC(=O)N[C@@H](CCCCNC(=O)[C@H](Cc1ccc2ccccc2c1)NC(=O)[C@H]1CC[C@H](CNC(=O)[C@H](CCCCNC(=O)CCC(=O)NCCSSCCNC(=O)CN2CCN(CC(=O)O)CCN(CC(=O)O)CCN(CC(=O)O)CC2)NC(=O)[C@H](CCC(=O)O)NC(=O)CCCc2ccc(I)cc2)CC1)C(=O)O)C(=O)O` [Example I-4, 4pIBA-Glu-Lys(-SSL1-DOTA)-Trx-2NaI-eKuE], in series [3], the “T/K at 4 h (tumor uptake/kidney uptake)” value came to 0.1, the “T at 24 h (tumor uptake)” value worked out at 0.79, the “T/K at 24 h (tumor uptake/kidney uptake)” value is reported as 0.2 and the “T at 96 h (tumor uptake)” value came to 0.3. Besides, the “T/K at 96 h (tumor uptake/kidney uptake)” value in series [3] is 1.2. For the same molecule, the “Relative Binding Affinity” value in series [1] (setting [5]) is 0.95. The “Relative Binding Affinity” value in series [1] (relative) is 0.95.
